Measured values: patent US20250263697, “COMPOSITIONS AND METHODS OF MODULATING RNA AND PROTEIN INTERACTIONS” (The Regents of the University of California, published 2025)

Molecular target: NSP12 (RNA-dependent RNA polymerase) (SARS-CoV-2, UniProt P0DTD1 P0DTD1:4393-5324)
Test: FP

B1: Scov2_7431_7555_RNA (ssRNA)
RNA: GGGCGAAAACGCCCCAUUUUAUUAUGUAUGGAAAAGUUAUGUGCAUGUUGUAGACGGUUGUAAUUCAUCAACUUGUAUGAUGUGUUACAAACGUAAUAGAGCAACAAGAGUCGAAUGUACAACUAUUGUUAAUGGUGUU
B1 was tested, and the Kd was 17 nM.
